Results taken from the Human Domainome abundance scans (Beltran et al. 2025).
± gives the uncertainty stated by the source.

B1: Chromodomain-helicase-DNA-binding protein 4, residues 444 to 496; numbered along this chain, Q14839 (parent)
chain: EDDHHMEFCRVCKDGGELLCCDTCPSSYHIHCLNPPLPEIPNGEWLCPRCTCP

Variants of: B1
Assay: abundance fitness (aPCA) (normalised: wild type 0, dead -1); higher = more abundant; growth selection in yeast, the domain comes from the species named
Details: Homo sapiens

Variant	abundance fitness
Y28T	-0.531 ± 0.069
Y28E	-0.64 ± 0.082
Y28P	-0.667 ± 0.062
Y28A	-0.574 ± 0.079
Y28Q	-0.657 ± 0.073
Y28W	-0.259 ± 0.053
Y28V	-0.471 ± 0.076
Y28F	0.015 ± 0.042
Y28S	-0.566 ± 0.057
Y28K	-0.833 ± 0.12
Y28N	-0.528 ± 0.045
Y28M	-0.656 ± 0.08
Y28H	-0.54 ± 0.055
Y28C	-0.639 ± 0.099
Y28L	-0.712 ± 0.058
Y28G	-0.605 ± 0.074
H29M	-0.998 ± 0.097
H29Y	-0.787 ± 0.072
H29E	-0.804 ± 0.11
H29T	-0.921 ± 0.048
H29W	-1.1 ± 0.1
H29R	-0.97 ± 0.059
H29P	-0.814 ± 0.072
H29A	-0.748 ± 0.056

Variant	abundance fitness
H29Q	-0.833 ± 0.11
H29N	-0.556 ± 0.12
H29D	-0.811 ± 0.079
H29I	-0.822 ± 0.09
H29S	-0.728 ± 0.054
H29C	-0.317 ± 0.063
H29F	-0.918 ± 0.11
H29L	-0.983 ± 0.066
H29V	-1.06 ± 0.063
C21P	-0.829 ± 0.048
C21H	-0.745 ± 0.047
C21W	-1.12 ± 0.1
C21D	-0.875 ± 0.086
C21L	-1.07 ± 0.05
C21S	-0.994 ± 0.063
C21E	-0.239 ± 0.1
C21Q	-0.76 ± 0.09
C21V	-1.05 ± 0.088
C21R	-0.762 ± 0.052
C21G	-0.722 ± 0.054
C21Y	-0.871 ± 0.066
C21F	-1.02 ± 0.12
C21K	-0.795 ± 0.059
C21I	-0.853 ± 0.066

Variant	abundance fitness
C21A	-0.71 ± 0.086
C21M	-0.955 ± 0.067
C21N	-0.787 ± 0.07
C21T	-0.902 ± 0.079
I30S	-0.018 ± 0.046
I30L	-0.023 ± 0.043
I30V	0.005 ± 0.054
I30E	-0.072 ± 0.07
I30K	-0.047 ± 0.08
I30F	-0.037 ± 0.067
I30A	-0.003 ± 0.056
I30W	-0.238 ± 0.052
I30N	-0.072 ± 0.062
I30T	-0.044 ± 0.055
I30D	-0.473 ± 0.1
I30R	-0.016 ± 0.061
I30C	-0.108 ± 0.076
I30Q	-0.159 ± 0.06
I30Y	-0.102 ± 0.057
I30H	-0.106 ± 0.061
I30G	-0.115 ± 0.058
I30M	0.026 ± 0.062
N34A	-0.08 ± 0.057
N34S	0.018 ± 0.048

Variant	abundance fitness
N34C	-0.155 ± 0.067
N34L	-0.197 ± 0.046
N34K	0.052 ± 0.071
N34F	-0.158 ± 0.042
N34G	-0.345 ± 0.075
N34E	-0.145 ± 0.091
N34R	-0.205 ± 0.053
N34M	-0.127 ± 0.068
N34T	-0.014 ± 0.05
N34P	-0.219 ± 0.054
N34D	-0.114 ± 0.09
N34I	-0.075 ± 0.051
N34V	-0.073 ± 0.061
N34H	-0.262 ± 0.069
S27E	-0.472 ± 0.12
S27V	-0.057 ± 0.049
S27N	-0.026 ± 0.07
S27W	-0.198 ± 0.067
S27A	0.067 ± 0.062
S27R	0.016 ± 0.052
S27Y	0.029 ± 0.059
S27T	-0.044 ± 0.057
S27G	-0.22 ± 0.057
S27C	-0.018 ± 0.075

Variant	abundance fitness
S27Q	-0.064 ± 0.076
S27F	-0.177 ± 0.076
S27D	-0.705 ± 0.12
S27K	-0.082 ± 0.073
S27M	-0.14 ± 0.076
S27H	-0.068 ± 0.059
S27P	-0.572 ± 0.075
S27I	-0.394 ± 0.091
L33E	-0.685 ± 0.2
L33W	-0.954 ± 0.14
L33N	-0.732 ± 0.061
L33H	-0.626 ± 0.053
L33S	-0.54 ± 0.044
L33K	-0.61 ± 0.055
L33D	-0.561 ± 0.092
L33M	-0.326 ± 0.067
L33A	-0.429 ± 0.057
L33Q	-0.602 ± 0.063
L33F	-0.373 ± 0.048
L33C	-0.421 ± 0.051
L33G	-0.598 ± 0.087
L33I	-0.085 ± 0.042
L33P	-0.703 ± 0.052
L33T	-0.361 ± 0.05

Variant	abundance fitness
L33R	-0.787 ± 0.073
C24M	-0.944 ± 0.058
C24T	-0.862 ± 0.079
C24K	-0.702 ± 0.048
C24N	-0.881 ± 0.11
C24E	-1.09 ± 0.16
C24S	-0.788 ± 0.064
C24G	-0.894 ± 0.073
C24A	-0.739 ± 0.05
C24I	-0.706 ± 0.061
C24H	-0.909 ± 0.097
C24V	-0.617 ± 0.054
C24Y	-0.696 ± 0.1
C24Q	-0.907 ± 0.078
C24L	-0.816 ± 0.047
C24R	-0.629 ± 0.061
C24F	-1.01 ± 0.12
C24P	-0.819 ± 0.064
C24W	-0.905 ± 0.11
S26C	-0.05 ± 0.045
S26N	-0.073 ± 0.08
S26A	0.104 ± 0.066
S26Y	-0.103 ± 0.071
S26L	-0.088 ± 0.048

Variant	abundance fitness
S26Q	0.08 ± 0.072
S26K	-0.324 ± 0.049
S26G	0.029 ± 0.059
S26F	-0.039 ± 0.06
S26R	0.003 ± 0.042
S26P	-0.625 ± 0.067
S26V	-0.132 ± 0.063
S26E	0.015 ± 0.052
S26H	0.021 ± 0.07
S26W	-0.11 ± 0.068
S26M	0.132 ± 0.052
C20F	-0.035 ± 0.06
C20V	-0.035 ± 0.045
C20W	0.069 ± 0.056
C20D	0.012 ± 0.082
C20K	0.095 ± 0.078
C20R	0.13 ± 0.048
C20H	0.168 ± 0.065
C20M	0.017 ± 0.064
C20A	0.099 ± 0.057
C20Q	0.17 ± 0.065
C20I	0.103 ± 0.042
C20L	0.012 ± 0.043
C20G	0.083 ± 0.059

Variant	abundance fitness
C20P	0.096 ± 0.057
C20Y	0.066 ± 0.049
C20N	0.14 ± 0.069
C20E	0.136 ± 0.065
C20S	0.093 ± 0.047
L19R	-0.314 ± 0.044
L19Y	-0.276 ± 0.066
L19F	-0.262 ± 0.073
L19Q	-0.157 ± 0.065
L19G	-0.488 ± 0.052
L19M	0.041 ± 0.066
L19T	0.037 ± 0.05
L19K	-0.033 ± 0.072
L19P	-0.484 ± 0.063
L19C	-0.075 ± 0.076
L19V	-0.056 ± 0.059
L19D	-0.354 ± 0.089
L19E	-0.632 ± 0.1
L19S	-0.291 ± 0.046
L19A	0.118 ± 0.048
L19H	-0.189 ± 0.055
L19N	-0.116 ± 0.079
L19I	0.1 ± 0.068
E17T	0.015 ± 0.051

Variant	abundance fitness
E17A	-0.309 ± 0.064
E17R	-0.123 ± 0.061
E17M	-0.098 ± 0.06
E17P	-0.657 ± 0.06
E17C	-0.382 ± 0.12
E17F	-0.395 ± 0.064
E17N	-0.077 ± 0.062
E17Y	-0.644 ± 0.06
E17S	-0.184 ± 0.053
E17L	-0.535 ± 0.047
E17G	-0.289 ± 0.064
E17Q	-0.146 ± 0.066
E17W	-0.576 ± 0.081
E17I	-0.206 ± 0.06
E17H	-0.906 ± 0.064
E17V	-0.215 ± 0.071
E17K	0.117 ± 0.066
E17D	-0.232 ± 0.076
H31I	-0.217 ± 0.062
H31V	-0.068 ± 0.059
H31R	-0.042 ± 0.053
H31F	0.017 ± 0.056
H31T	-0.042 ± 0.054
H31K	0.035 ± 0.05

Variant	abundance fitness
H31N	0.106 ± 0.074
H31P	-0.354 ± 0.059
H31C	-0.046 ± 0.068
H31G	0.002 ± 0.06
H31L	-0.194 ± 0.043
H31W	-0.285 ± 0.056
H31E	-0.046 ± 0.05
H31D	-0.197 ± 0.081
H31M	-0.063 ± 0.067
H31S	-0.203 ± 0.051
H31A	-0.138 ± 0.057
H31Y	-0.097 ± 0.046
H31Q	-0.042 ± 0.063
T23E	0.047 ± 0.083
T23Q	-0.07 ± 0.066
T23I	-0.042 ± 0.042
T23A	-0.119 ± 0.074
T23M	-0.077 ± 0.067
T23K	-0.031 ± 0.065
T23H	-0.107 ± 0.076
T23Y	-0.084 ± 0.058
T23W	-0.2 ± 0.044
T23R	0.038 ± 0.063
T23F	-0.221 ± 0.077

Variant	abundance fitness
T23P	-0.738 ± 0.053
T23L	-0.195 ± 0.053
T23C	-0.074 ± 0.088
T23N	0.093 ± 0.067
T23V	-0.075 ± 0.072
T23D	-0.305 ± 0.11
T23S	-0.044 ± 0.049
C32E	-0.66 ± 0.1
C32W	-1.05 ± 0.1
C32M	-1 ± 0.079
C32F	-1.02 ± 0.059
C32D	-0.68 ± 0.1
C32A	-0.882 ± 0.067
C32N	-1.15 ± 0.14
C32R	-0.857 ± 0.057
C32S	-0.821 ± 0.052
C32V	-0.914 ± 0.063
C32L	-0.99 ± 0.052
C32P	-0.937 ± 0.074
C32K	-0.933 ± 0.094
C32Q	-0.369 ± 0.085
C32I	-0.898 ± 0.083
P25H	-0.024 ± 0.045
P25G	-0.106 ± 0.072

Variant	abundance fitness
P25K	-0.078 ± 0.055
P25M	-0.167 ± 0.054
P25N	-0.303 ± 0.072
P25C	-0.087 ± 0.051
P25D	-0.172 ± 0.089
P25R	0.032 ± 0.058
P25Q	-0.209 ± 0.077
P25E	-0.28 ± 0.15
P25L	-0.163 ± 0.044
P25V	-0.18 ± 0.048
P25I	-0.15 ± 0.051
P25F	-0.167 ± 0.077
P25A	-0.124 ± 0.079
P25S	-0.1 ± 0.056
P25W	-0.061 ± 0.087
L18C	-0.761 ± 0.15
L18A	-0.682 ± 0.09
L18H	-0.66 ± 0.079
L18D	-1.3 ± 0.39
L18Y	-0.751 ± 0.055
L18V	-0.117 ± 0.052
L18R	-0.394 ± 0.05
L18W	-0.738 ± 0.054
L18I	-0.357 ± 0.068

Variant	abundance fitness
L18N	-0.489 ± 0.07
L18K	-0.517 ± 0.1
L18P	-1.07 ± 0.072
L18T	-0.373 ± 0.051
L18F	-0.581 ± 0.068
L18S	-0.717 ± 0.061
L18Q	-0.397 ± 0.071
L18M	0.037 ± 0.051
L18E	-0.744 ± 0.1
L18G	-0.732 ± 0.093
G16V	-0.842 ± 0.1
G16Y	-0.83 ± 0.11
G16T	-0.432 ± 0.056
G16W	-0.906 ± 0.12
P35H	-0.386 ± 0.071
P35N	-0.302 ± 0.064
P35I	-0.432 ± 0.078
P35T	-0.198 ± 0.051
P35G	-0.289 ± 0.067
P35D	-0.262 ± 0.093
P35L	-0.378 ± 0.046
P35W	-0.593 ± 0.047
P35V	-0.399 ± 0.059
P35A	-0.296 ± 0.057

Variant	abundance fitness
P35S	-0.261 ± 0.042
P35Q	-0.226 ± 0.064
P35K	-0.199 ± 0.072
P35E	-0.076 ± 0.088
P35F	-0.45 ± 0.05
D22V	-0.159 ± 0.046
D22K	0.129 ± 0.053
D22H	-0.02 ± 0.052
D22L	-0.067 ± 0.04
D22G	-0.011 ± 0.05
D22E	-0.055 ± 0.093
D22F	0.005 ± 0.057
D22Y	-0.112 ± 0.066
D22N	-0.085 ± 0.065
D22P	-0.095 ± 0.045
D22M	-0.26 ± 0.072
D22I	-0.399 ± 0.077
D22R	-0.058 ± 0.059
D22A	0.032 ± 0.051
D22T	0.074 ± 0.047
D22Q	-0.067 ± 0.072
D22W	-0.254 ± 0.08
